Experiments:
[1] = biological target: T1, chimeric construct (CHIM) (human); assay: SPR (BIAcore T-200); antibody captured by anti-murine IgG, antigen flowed
T1 construct: CEACAM6 AA 1-273 joined to the membrane-peripheral region containing domain B3 of CEA (AA 596-687), C-terminal 6xHis; also called chimeric CEA
T1 chain: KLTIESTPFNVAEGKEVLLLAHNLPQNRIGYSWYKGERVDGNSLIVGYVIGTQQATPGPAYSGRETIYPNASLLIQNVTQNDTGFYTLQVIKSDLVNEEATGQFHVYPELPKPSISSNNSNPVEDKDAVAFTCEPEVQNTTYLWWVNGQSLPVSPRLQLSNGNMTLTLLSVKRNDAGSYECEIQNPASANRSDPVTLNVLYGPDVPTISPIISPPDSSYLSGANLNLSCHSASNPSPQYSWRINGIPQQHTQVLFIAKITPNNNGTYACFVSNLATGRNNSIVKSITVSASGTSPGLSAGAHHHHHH
Procedure: (§1) Briefly, anti-murine IgG antibody was immobilized on an activated CM5 biosensor chip (Cat. No. BR100530, GE Life Sciences). Purified murine antibodies were flowed over the chip surface and captured by anti-murine IgG antibody. […] The equilibrium dissociation constant (KD) was calculated as the ratio koff/kₒₙ.

CEA variant (CEA-v) = biological target: T2, CEA variant (CEA-v) (human, UniProt P06731 35-687); assay: as above
T2 construct: Splice-variant construct made by overlap PCR of CEA AA 1-78 and AA 398-687, C-terminal 6xHis; also called sCEA-v
T2 sequence: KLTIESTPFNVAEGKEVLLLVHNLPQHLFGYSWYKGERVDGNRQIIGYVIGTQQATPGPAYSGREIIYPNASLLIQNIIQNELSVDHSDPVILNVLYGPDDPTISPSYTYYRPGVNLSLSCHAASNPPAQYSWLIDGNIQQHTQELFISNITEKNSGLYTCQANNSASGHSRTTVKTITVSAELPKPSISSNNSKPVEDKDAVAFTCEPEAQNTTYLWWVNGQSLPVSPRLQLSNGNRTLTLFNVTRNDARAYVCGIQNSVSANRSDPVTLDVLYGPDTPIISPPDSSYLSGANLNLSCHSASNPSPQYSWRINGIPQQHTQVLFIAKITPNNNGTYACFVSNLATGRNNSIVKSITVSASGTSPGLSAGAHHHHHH
Procedure: as §1

[2] = biological target: T3, recombinant soluble human CEA (extracellular domain, AA 1-687 of huCEA, C-terminal 6xHis) (human, UniProt P06731 35-687); assay: SPR; kinetics on huCEA, IgG format
T3 construct: also called sCEA; soluble CEA
T3 sequence: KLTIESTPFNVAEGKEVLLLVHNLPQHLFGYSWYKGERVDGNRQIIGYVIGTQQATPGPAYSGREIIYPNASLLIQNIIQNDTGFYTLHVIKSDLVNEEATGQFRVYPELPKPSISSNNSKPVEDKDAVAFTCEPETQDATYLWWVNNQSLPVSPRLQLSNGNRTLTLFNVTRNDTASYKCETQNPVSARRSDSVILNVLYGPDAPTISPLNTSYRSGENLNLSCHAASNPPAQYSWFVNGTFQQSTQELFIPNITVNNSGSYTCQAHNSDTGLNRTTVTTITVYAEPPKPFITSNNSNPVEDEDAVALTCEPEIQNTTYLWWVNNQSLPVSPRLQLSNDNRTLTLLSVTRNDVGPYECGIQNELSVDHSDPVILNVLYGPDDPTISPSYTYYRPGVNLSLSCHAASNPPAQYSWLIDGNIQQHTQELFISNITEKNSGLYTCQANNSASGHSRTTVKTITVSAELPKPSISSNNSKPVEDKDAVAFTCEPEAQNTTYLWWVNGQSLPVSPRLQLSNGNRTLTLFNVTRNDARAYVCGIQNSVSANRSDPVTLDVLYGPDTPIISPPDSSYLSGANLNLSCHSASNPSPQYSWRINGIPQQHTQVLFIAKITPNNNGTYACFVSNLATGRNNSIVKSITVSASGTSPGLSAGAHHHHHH

[3] = biological target: T4, human CEA on cells (MKN45, LOVO, NCI-H2122, LS174T, CT26/CEA) (human, UniProt P06731 35-685); assay: flow cytometry on MKN45 cells, Alexa Fluor 647 anti-human IgG Fc
T4 construct: Full-length human CEA, endogenous on tumour cell lines or transduced; also called native CEA on living cells; huCEA surface protein
T4 sequence: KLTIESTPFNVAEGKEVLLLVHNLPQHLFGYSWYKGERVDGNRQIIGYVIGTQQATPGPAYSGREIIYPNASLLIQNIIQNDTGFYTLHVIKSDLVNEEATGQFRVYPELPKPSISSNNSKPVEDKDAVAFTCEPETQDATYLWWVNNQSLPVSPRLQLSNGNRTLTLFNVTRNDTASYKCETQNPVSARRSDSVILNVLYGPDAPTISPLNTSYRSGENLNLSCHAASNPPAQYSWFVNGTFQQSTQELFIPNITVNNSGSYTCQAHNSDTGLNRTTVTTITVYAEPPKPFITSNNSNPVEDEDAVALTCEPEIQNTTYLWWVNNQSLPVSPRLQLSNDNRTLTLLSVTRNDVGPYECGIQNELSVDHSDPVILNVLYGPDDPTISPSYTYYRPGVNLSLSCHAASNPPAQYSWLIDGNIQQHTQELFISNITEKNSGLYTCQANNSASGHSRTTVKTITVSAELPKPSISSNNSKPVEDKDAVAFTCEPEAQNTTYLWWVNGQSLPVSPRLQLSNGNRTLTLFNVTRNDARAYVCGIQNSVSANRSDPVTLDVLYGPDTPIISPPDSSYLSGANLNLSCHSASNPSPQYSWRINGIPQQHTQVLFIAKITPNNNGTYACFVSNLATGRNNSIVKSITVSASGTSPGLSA
Procedure: For flow cytometry, CEA-expressing MKN45 cells (10^5 cells/well) were incubated with various concentrations of purified affinity-matured antibodies, followed by binding with Alexa Fluor-647-labeled anti-hu IgG Fc antibody (Cat. No. 409320, BioLegend, USA). Cell fluorescence was quantified using a flow cytometer (Guava easyCyte™ 8HT, Merck-Millipore, USA).

[4] = biological target: T4, human CEA on cells (MKN45, LOVO, …); assay: cell-based or functional assay
[5] = biological target: T4, human CEA on cells (MKN45, LOVO, …); assay: flow cytometry on MKN45 cells
[6] = biological target: T1, chimeric construct (CHIM); assay: SPR; binding to CHIM
CEA = biological target: T5, CEA (Homo sapiens, UniProt P06731); assay: Binding of humanized and PTM-engineered BGA7592 variants compared to BGA7592-1
T5 sequence (P06731 35-676): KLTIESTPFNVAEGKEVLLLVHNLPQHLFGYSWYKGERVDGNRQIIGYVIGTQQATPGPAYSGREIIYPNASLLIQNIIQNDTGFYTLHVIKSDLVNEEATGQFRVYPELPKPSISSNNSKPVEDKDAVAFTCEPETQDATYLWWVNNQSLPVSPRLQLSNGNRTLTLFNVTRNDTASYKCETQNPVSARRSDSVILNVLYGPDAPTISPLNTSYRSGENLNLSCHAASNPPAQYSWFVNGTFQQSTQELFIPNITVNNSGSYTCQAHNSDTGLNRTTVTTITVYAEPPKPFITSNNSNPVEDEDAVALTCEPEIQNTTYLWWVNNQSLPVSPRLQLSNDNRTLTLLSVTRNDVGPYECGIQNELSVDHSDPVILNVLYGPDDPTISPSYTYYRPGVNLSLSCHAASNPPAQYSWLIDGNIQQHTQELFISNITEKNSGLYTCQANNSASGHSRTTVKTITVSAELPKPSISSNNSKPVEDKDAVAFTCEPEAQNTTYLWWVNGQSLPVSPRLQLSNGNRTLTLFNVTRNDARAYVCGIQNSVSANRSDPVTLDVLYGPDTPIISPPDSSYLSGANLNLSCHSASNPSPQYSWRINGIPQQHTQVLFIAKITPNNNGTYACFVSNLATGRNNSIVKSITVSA
From the text: Using BGA7592-1, an additional number of single or multiple amino acid changes were made, converting the human residues in framework regions of VH and VL to corresponding murine germline residues, which include V68A, R72A and V79A in VH and V43S in VL, respectively. This resulted BGA7592-2 (V68A, R72A in VH), BGA7592-3 (V79A in VH), BGA7592-4 (V68A, R72A, V79A in VH), BGA7592-5 (V43S in VL), BGA7592-6 (V68A, R72A in VH, and V43S in VL), BGA7592-7 (V79A in VH, V43S in VL) and BGA7592-8 (V68A, R72A, V79A, in VH and V43S in VL). All antibodies which contained modifications had similar binding activities to BGA7592-1, and none of the changes abolished binding.
In order to remove post-translational modification (PTM) sites, further engineering was made by introducing mutations in CDRs and framework regions based on the BGA75921 sequence, which include N52T, N54Q, N59S, N102G, N104Q and S61A amino acid changes in the VH region. […] While maintaining specificity, amino acid compositions and expression levels were also considered. All humanization mutations were made using primers containing mutations at specific positions and a site directed mutagenesis kit (Cat. FM 111-02, TransGen, Beijing, China). The desired mutations were verified by sequence analysis.

B1: BGA7592 (antibody, V domains shown)
VH: QVQLQQSGAELAKSGASVKMSCKASGYIFTSYWLHWVKQRPGQGLEWIGYINPNTGYTNYSQKFKDKATLTADKSSSTAYMQLSSLTSEDSAVYYCAREYGNYNYPLDYWGQGTSVTVSS
VL: DIQMTQSPASLSASVGETVTITCRASENIYGYLAWYQQKQGKSPQLLVFNAKNLVEGVPSRFSGSGSGTQFSLKINSLQPEDFGSYYCQHHYGTPYTFGGGTKLEIK
notes: Murine monoclonal antibody purified from hybridoma supernatant; also called murine anti-CEA antibody BGA7592
B1 gave a Kd [1] of 120 nM and a Kd (CEA variant (CEA-v)) of 150 nM.

B2: BGA6710 (antibody, human IgG1, V domains shown)
VH: QVQLVQSGAEVKKPGASVKVSCKASGYIFTSYYLHWVRQAPGQGLEWIGYINPQTGYTSYAQKFQGRVTMTRDTSTSTVYMELSSLRSEDTAVYYCAREYGNYNYPLDYWGQGTLVTVSS
VL: DIQMTQSPSSLSASVGDRVTITCRASENQYGYLAWYQQKPGKVPKLLIYNYKNLVEGVPSRFSGSGSGTDFTLTISSLQPEDVATYYCQHHLGTPYTFGQGTKVEIK
notes: BGA2433 with W33Y (VH) and T51Y (VL); wild-type human IgG1 format
With B2 the Kd [2] was 1.49 nM, the koff [2] was 0.000169 s⁻¹ and the kon [2] was 113000 M⁻¹ s⁻¹. The “EC50 (read off the curve)” value [3] was roughly 0.5 µg/mL, the “ADCC (LDH release), NK92MI/CD16V effector cells with CT26 cells expressing CEA, EC50” value [4] was roughly 0.0067 µg/mL and the EC50 [5] was 0.49 µg/mL. For the same molecule, the Top [5] was 919, the Kd [6] was 15.1 nM and the koff [6] was 0.000475 s⁻¹. For the same molecule, the kon [6] was 31500 M⁻¹ s⁻¹.

B3: BGA7592-1F: "BGA7592-1F (N54Q, N59S, S61 A (VH))"; humanized, "no glycosylation sites but had a high expression level" (antibody, V domains shown)
VH: QVQLVQSGAEVKKPGASVKVSCKASGYIFTSYWLHWVRQAPGQGLEWIGYINPQTGYTSYAQKFQGRVTMTRDTSTSTVYMELSSLRSEDTAVYYCAREYGNYNYPLDYWGQGTLVTVSS
VL: DIQMTQSPSSLSASVGDRVTITCRASENIYGYLAWYQQKPGKVPKLLIYNAKNLVEGVPSRFSGSGSGTDFTLTISSLQPEDVATYYCQHHYGTPYTFGQGTKVEIK
In the case of B3, the “binding affinities compared to BGA7592-1” value (CEA) is reported as “significantly reduced binding affinities”.
